Test results reported in the DeepSol protein solubility set.

Assay: soluble on expression in E. coli; label from the status in PepcDB or PDB records
In the case of “MAHHHHHHMFLFRHSAEPMEAEEERHERVDSTTEPHNAATAAARKRRTSADVANGEVSREASGVAESFDETGGAPHTPREGTAPPPDVHDMLEHQRPRDEDDAEADMAAAALAASAPAPFHGVPTLPMPRTCDENPQAEADGNSTQRHRSYSHTSRFAAPSPRSTSGISRGRSYSLSGLSAAELADVHEQQYRRCTSIVKSARCISARRASSVNGVVGVIDDLYTLASRRSSAMTEAERVAVERMIENEYRRQEAAERSAQFALARESIIVNEELAREKATYVRRMHLNEELHARLAKSSRTRQERMTAAAQRRQEIEQERLRVLYGSMMEKDTRYHFRNPYEMMAAQRRYSIEMRSPAAIAPQRRASSPSTRASGNAQMSPRSAEGVANCTTEDRCTSSPATRRRSSTPSIAKSKPRQCLPLDAWKKPVPPRKDSCRSDISAEHRCRSPTDWRATAVLEHPRQWH”, the “soluble on expression in E. coli” value is reported as “not soluble”.
In the case of “MQNGAMKAWLDSSYLAGANQSYIEQLYEDFLTDPGSVDDSWRSIFQQLPTTGVKPDQLHSQTREYFRRLAKDSTRYNSSINDPDIDAKQVKVLQLINAFRFRGHQHANLDPLGLWKQESVPDLDPSYHNLTEADFQNTFNVGSFAIGKETMKLADLYAALKQTYCGSVGAEYMHITNTEEKRWIQQRIESVVGKPTFSDAEKRRFLSELTAAEGLERYLGAKFPGAKRFSLEGGDSLVTMLKEMIRHAGKNGTREVVLGMAHRGRLNVLINVLGKKPEDLFDEFAGKHKEHLGTGDVKYHQGFSSDVETEGGLVHLALAFNPSHLEIVSPVVIGSVRARRDRLDEARSNMVLPITIHGDAAITGQGVVQETLNMSQARGYEVGGTVRIVINNQIGFTTSNPLDARSTQYCTDIAKMVQAPIFHVNADDPEAVAFVTRLALDFRNTFKRDVMIDLVCYRRHGHNEADEPSATQPVMYQKIKKHPTPRKIYADKLIEQNIASLEDATEMVNLYRDALDHGDCVVEEWRPMNLQSFTWSPYLNHEWDEAYPSKVEMKRLQELARRISSAPEAIEMQSRVAKIYSDRALMASGEKPFDWGGAETLAYATLVDEGIPIRLSGEDAGRGTFFHRHAVIHNQKNGSVYVPLSNIHSGQGDFQVWDSVLSEEAVLAFEYGYATAEPRTLTIWEAQFGDFANGAQVVIDQFISSGEQKWGRMCGLVMLLPHGYEGQGPEHSSARLERYLQLCAEQNMQVCIPSTPAQVYHMIRRQALRGMRRPLIVMSPKSLLRHPLATSSLDELANGSFLPAIGEIDELDPKGIKRVVMCSGKVYYDLLEQRRKNGQTDVAIVRIEQLYPFPHQAVQSVLEQYAHVHDFVWCQEEPLNQGAWYCSQHNFREVIPFGASLRYAGRPASASPAVGYLSVHQKQQQALVNDALNVE”, the “soluble on expression in E. coli” value is reported as “not soluble”.
In the case of “MNISVFDLFSIGIGPSSSHTVGPMLAANAFLQLLEQKNLFDKTQRVKVELYGSLALTGKGHGTDKAILNGLENKAPETVDPASMIPRMHEILDSNLLNLAGKKEIPFHEATDFLFLQKELLPKHSNGMRFSAFDGNANLLIEQVYYSIGGGFITTEEDFDK”, the “soluble on expression in E. coli” value is reported as “not soluble”.
In the case of “MWRSSLMCLPDTSWGAMETTFVLDALEQALWARRPSGTVHHSDKGSQYVSLAYTQRLKEAGLLASTGSTGDSYDNAMAESINGLYKAEVIHRKSWKNRAEVELATLTWVDWYNNRRLLERLGHTPPAEAEKAYYASIGNDDLAA”, the “soluble on expression in E. coli” value is reported as “not soluble”.
With “SKRVNSCVKSDEHVLEELETEGERQLKSLLQHQLDTSVSIEECMSKKESFAPGTMYKPFGKEAAGTMTLSQFQTLHEKDQETASLRELGLNETEILIWKSHVSGEKKTKLRATPEAIQNRLQDIEERISERQRILCLPQRFAKSKQLTRREMEIEKSLFQGADRHSFLKALYYQDEPQKKNKGDPMNNLESFYQEMIMKKRLEEFQLMRGEPFASHSLVSATSVGDSGTAESPSLLQDKGKQAAQGKGPSLHVANVIDFSPEQCWTGPKKLTQPIEFVPEDEIQRNRLSEEEIRKIPMFSSYNPGEPNKVLYLKNLSPRVTERDLVSLFARFQEKKGPPIQFRMMTGRMRGQAFITFPNKEIAWQALHLVNGYKLYGKILVIEFGKNKKQRSNLQATSLISCATGSTTEISGS” the “soluble on expression in E. coli” value was “not soluble”.
In the case of “SIERLGYLGFAVKDVPAWDHFLTKSVGLMAAGSAGDAALYRADQRAWRIAVQPGELDDLAYAGLEVDDAAALERMADKLRQAGVAFTRGDEALMQQRKVMGLLCLQDPFGLPLEIYYGPAEIFHEPFLPSAPVSGFVTGDQGIGAFVRCVPDTAKAMAFYTEVLGFVLSDIIDIQMGPETSVPAHFLHCNGRHHTIALAAFPIPKRIHHFMLQANTIDDVGYAFDRLDAAGRITSLLGRHTNDQTLSFYADTPSPMIEVEFGWGPRTVDSSWTVARHSRTAMWGHKSVRGQR”, the “soluble on expression in E. coli” value is reported as “soluble”.
In the case of “MRNNPLIPKSKLPNLGTTIFTQMSALAQKHQAINLSQGFPDFDGPRYLHERLAYHVAQGANQYAPMTGAQALREAIADKTAEIYGYRPDDVSDITVTAGATEALYAAITALVRAGDEVICFDPSYDSYAPAVALSGGVLKRIALTPPHFRVDWQAFSALLSERTRLVILNTPHNPTATVWRQADIEALWQAIGEREIYVLSDEVYEHICFAAEGHASVLAHPQLRERAVAVSSFGKTFHMTGWKIGYCVAPAAISAEIRKVHQYLTFCVNTPAQLALADMLRAAPEHYRALPDFYRKKRDVLVNALAQSRLKVLPCEGTYFLLIDYSAVSTLNDVEFCQWLTEEVGVAAIPLSVFCAAPFPHQLIRLCFAKQESTLLAAAERLCKL”, the “soluble on expression in E. coli” value is reported as “not soluble”.
In the case of “MSLGGSIKSPQSLTIDIIKRDYLNFKNKKILSFKDIKPKYDSQSDYHGNAIYYFMFYNKLKEFENIQNEKFKIKKEILKSYIIIIDEINRGNVSKIFGELITLIEPSKRIGEKEELKVTLPYSGEKFGVPKNVYIIGTMNTADRSITSLDTALRRRFEFVEMMPDVSKLSMDCEGINLQELLKAINTRIEYLLDREKTIGHAFFVSVENLEDLKKVFQNKIIPLLQEYFYNDYALINAVLNDNDMIFEDKKDDKYLQKIKNLDSVNSERSIYNIASFDDKIWDKIEIYQAIYNDEIANKLKNEGHHHHHH”, the “soluble on expression in E. coli” value is reported as “not soluble”.
In the case of “MSLKHQFSRNELAYGQEGLDLLKEKTVAVLGVGGVGSFAAEALARTNIGHIILIDKDDVDITNVNRQIHALTTTIGQSKVTLMEERIKLINPDCKVTPLHMFYTEETYEDLFNNYDIDYFIDASDTIIYKVHLMKECLERGIKMISSMGAANKTDPTRFKIADISKTYMDPMAKIIRNKLKRQGIKKGVPVVFSDESPIVIREDVKATVGDANAINRKGQMPPSSNAFVPSTVGLICASYVVNDILKNIPVRRIKDKGNEGHHHHHH”, the “soluble on expression in E. coli” value is reported as “soluble”.
With “GPGSMRCVRSAAVLVKFGRSFDSTTRFGKELGFSHKMRDIPVLTGNPRPVAREEEWSCRYKLTDRMEDVVMDILKKEGWCEAEVQREMSEIFERKTQGCRSSLNTWTTVEEFQRTPWYRRYKPTDTCVAKYISYEVVKLLEEALIPPSLRGDPYAHLRKRHMEDNWMNDRFSEEAAKYIQREDLNKHTKGLPQYGQITRRKFLEFDRQFKESYGGKQHVNEAYSAWLQSIGKG” the “soluble on expression in E. coli” value was “not soluble”.
For “YCTLADLQLAIPQATLTQLTNDVPADYSVAQEPNLAVVEEAVRQAEELVDAHLRGRYVLPLVTVPSVIKDNTVNLARHWLYARRPEGNELPDAVTRTYKAALQILESIRDGKLHIGVPTGEAAPEPGEVRVRARRQLFSASM”, the “soluble on expression in E. coli” value was “not soluble”.
With “MIPADGWRHVGDQWLVSTDGAKIHASELADHLLADFGYAIVYDEMAEPVDLYRTQRFANDKQRLILTADQLLCADPQCTRAAYRGQAHHIEAWKNGGDTNLKNLCLTCGPHNALNDDDHAKGKHKNGHYVRDKYNGRIGWQPPDPTKSIRFNNHVLAQKSGRSWAIRHFGL” the “soluble on expression in E. coli” value was “not soluble”.
For “MGSDKIHHHHHHMSAHEMNHATPRLPAPLFVTGTDTGVGKTVVSLLLMRALFRRGMVPFYAKPMQTGCRDPYDTDSDAAFVYRHVPELAERDPAEAVGWCFRAPKAPLHAARDERNGVETEDLMRRLAILRATHACLVLEGAGGLMVPFTADALCVDCIRAADARPVLVARDGLGTVNHTLLSVEAMTRRGVTPAGIVFVASGKRPTPSDLVHDNMEAVAMLSGISVSGIVPPILDFHAPPEAALTVADAVIDAALGL”, the “soluble on expression in E. coli” value was “not soluble”.
For “GSSHHHHHHSSGLVPRGSHMRIVFDIGGSVLVPENPDIDFIKEIAYQLTKVSEDHEVAVVVGGGKLARKYIEVAEKFNSSETFKDFIGIQITRANAMLLIAALREKAYPVVVEDFWEAWKAVQLKKIPVMGGTHPGHTTDAVAALLAEFLKADLLVVITNVDGVYTADPKKDPTAKKIKKMKPEELLEIVGKGIEKAGSSSVIDPLAAKIIARSGIKTIVIGKEDAKDLFRVIKGDHNGTTIEP”, the “soluble on expression in E. coli” value was “soluble”.
With “MPSASASRKSQEKPREIMDAAEDYAKERYGISSMIQSHEKPDRVLVRVRDLTIQKADEVVWVRARVHTSRAKGKQCFLVLRQQQFNVQALVAVGDHASKQMVKFAANINKESIVDVEGVVRKVNQKIGSCTQQDVELHVQKIYVISLAEPRLPLQLDDAVRPEAEGEEEGRATVNQDTRLDNRVIDLRTSTSQAVFRLQSGICHLFRETLINKGFVEIQTPKIISAASEGGANVFTVSYFKNNAYLAQSPQLYKQMCICADFEKVFSIGPVFRAEDSNTHRHLTEFVGLDIEMAFNYHYHEVMEEIADTMVQIFKGLQERFQTEIQTVNKQFPCEPFKFLEPTLRLEYCEALAMLREAGVEMGDEDDLSTPNEKLLGHLVKEKYDTDFYILDKYPLAVRPFYTMPDPRNPKQSNSYDMFMRGEEILSGAQRIHDPQLLTERALHHGIDLEKIKAYIDSFRFGAPPHAGGGIGLERVTMLFLGLHNVRQTSMFPRDPKRLTP” the “soluble on expression in E. coli” value was “soluble”.
In the case of “MSMSSTVIKFRAGVCEYNEDSRLCTPIPVQGEIEIKPNEEEELGFWDFEWRPTEKPVGRELDPISLILIPGETMWVPIKSSKSGRIFALVFSSNERYFFWLQEKNSGNLPLNELSAKDKEIYNKMIGVLNNSSESDEEESNDEKQKAQDVDVSMQD”, the “soluble on expression in E. coli” value is reported as “soluble”.
With “MGSDKIHHHHHHMYVNRIGTFRDHPDLYGVSVYFQGCDAKPKCYMCHNPETWHLSEEYKRPSEVVTKIIDEKLSSLLRYFPKAALVFLGGEPLAPYNREEMLSLSKMFKEKYGERLTVVLFTWRLPKDIVKENLLKYVQYVDEFVMGRYLHTYRRDGFPASKNQIHIDRRTFERMIEAVLRRGHYEGSVFVRKRI” the “soluble on expression in E. coli” value was “not soluble”.
For “MATKRDYYEILGLSKDSSVEDIKKTYRKLALQYHPDRNKEPGAEEKFKEISEAYAVLSDAEKRAQYDRFGHAGIDNQYSAEDIFRGADFGGFGDIFEMFFGGGRRGGPMGPRRGSDLQYDLYVTFEEAAFGVRKDIDIPRTERCSTCSGTGAKPGTSPKRCPNCGGTGQVRTTRSTLGMQFVSTTTCSACHGRGQVVESPCPTCSGAGRVRSRRKMSVNVPAGADSGMTLRLSGEGDAGEPGAPSGDLYIIVHVMEHKYFKRVDYDVISELPISFTQAALGADIMVDTLYGKVKMNIPSGTQTHSVFRLKDKGIQRLQGHGKGDQLVRVIIRTPTKLTQEQKDLLHQFEYLSNGKKPEAEERSRSDKQKSEKPRKSKGLFEKVKDAFES”, the “soluble on expression in E. coli” value was “not soluble”.
For “MGSDKIHHHHHHMDDIKSQIKELRLGAKIRKLRQDRRLTLQELSELSGLSKPLLSQIENDQVTPPIATLLKISKGLKVGIHYFFEEEEDQQKVVLTRAAQQQPTRRRSGNDAPHGYIYRSLAPGIRHKPMEPFLVEFELTDWSDSFFYRHDGFEFIYLLDGELEFHYGSDVMRLLPGDSIYYDSSEPHGYVSVGEERARAVAVLYTRD”, the “soluble on expression in E. coli” value was “not soluble”.
